This is an account of results in patent US20230137032A1 (GlaxoSmithKline, published 2023).

Several values for one entry are separate records, joined by “and”; a condition that tells them apart may be missing. Identical values can stand only once.

In experiment [1] the target is T1, human BCMA expressed on cells (human, UniProt Q02223 1-184).
T1 sequence (looked up): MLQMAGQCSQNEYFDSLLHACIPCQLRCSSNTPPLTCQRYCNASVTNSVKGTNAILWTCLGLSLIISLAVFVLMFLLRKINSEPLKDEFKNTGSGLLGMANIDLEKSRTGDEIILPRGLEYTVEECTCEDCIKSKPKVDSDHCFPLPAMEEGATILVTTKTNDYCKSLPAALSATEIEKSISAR
Nature of the experiment: cell-based or functional assay.

The target of experiment [2] is T2, recombinant human BCMA, commercial (US Biological, B0410) (human, UniProt Q02223 5-54, limits assumed).
T2 construct: also called commercial human BCMA; Human commercial BCMA
T2 chain (looked up): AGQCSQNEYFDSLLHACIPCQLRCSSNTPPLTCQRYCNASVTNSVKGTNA
Nature of the experiment: Biacore T100, antibody captured on Protein A, 37C. In general terms: In SPR one partner is held on a chip, and binding of the other changes the refractive index at the surface.

Experiment [3] deals with T3, recombinant cyno BCMA, in house material (cyno, UniProt A0A2K5UD97 4-52).
T3 construct: also called Cyno in house BCMA
The experiment in a line: Biacore T100, antibody captured on Protein A, 37C.

Experiment [4] addresses T1, human BCMA expressed on cells. Nature of the experiment: FACS on JJN-3 cells, PE anti-human IgG, MFI. As to the method: Cells were then washed with FACS buffer (PBS+0.5% BSA+0.1% sodium azide) to remove unbound antibody. Cells were incubated with a secondary PE labelled anti-human IgG antibody for 15 minutes at RT and then washed with FACS buffer to remove unbound antibody. Cells were analysed by FACS and mean fluorescence intensity (MFI) values measured to determine binding.

The target of experiment [5] is T3, recombinant cyno BCMA, in house material. Nature of the experiment: ProteOn SPR run 1, antibody captured on Protein A, 25C.
Experiment [6] deals with T2, recombinant human BCMA, commercial (US …). The experiment in a line: ProteOn SPR run 2, antibody captured on Protein A, 25C.
In experiment [7] the target is T3, recombinant cyno BCMA, in house material. Described as above.
Experiment [8] addresses T2, recombinant human BCMA, commercial (US …). The experiment in a line: Biacore T100, antibody captured on Protein A, 25C, experiment 1. As to the method:
(§1) Protein A was immobilised on a CMS chip (GE Healthcare, Cat No: BR-1005-30) by primary amine coupling and this surface was then used to capture the antibody molecules. Recombinant human BCMA (US Biological, B0410) was used as analyte at 256 nM, 64 nM, 16 nM, 4 nM and 1 nM. Regeneration of the capture surface was carried out using 50 mM NaOH. All binding curves were double referenced with a buffer injection (i.e. 0 nM) the data was fitted to the using the 1:1 model inherent to T100 evaluation software. The run was carried out at 25° C. and 37° C. for experiment 1 and only 37° C. for experiment 2 using HBS-EP as the running buffer.

Experiment [9] shares this target. Nature of the experiment: Biacore T100, antibody captured on Protein A, 37C, experiment 2. Here is the method:
as §1

For experiment [10], the target named is T4, recombinant human BCMA, in house material (human, UniProt Q02223 4-53, limits assumed).
T4 construct: also called Human in house BCMA; In house human BCMA
Nature of the experiment: ProteOn SPR run 1, antibody captured on Protein A, 25C; Run 1 (Table 8). Here is the method:
The initial screen of CA8 chimeric and humanised variants was carried out on the ProteOn XPR36 (Biorad). The method was as follows; Protein A was immobilised on a GLC chip (Biorad, Cat No: 176-5011) by primary amine coupling, CA8 variants were then captured on this surface and recombinant human BCMA (in house or commercial US Biological, B0410) materials (run 2 only)) passed over at 256, 64, 16, 4, 1 nM with a 0 nM injection (i.e. buffer alone) used to double reference the binding curves, the buffer used is the HBS-EP buffer. 50 mM NaOH was used to regenerate the capture surface. The data was fitted to the 1:1 model using the analysis software inherent to the ProteOn XPR36. […] Both runs were carried out at 25° C.

Experiment [11] deals with T5, recombinant human BCMA Fc 4-53 (human).
T5 construct: also called Human BCMA CD33-hBCMA ECD (4-53) TEV-Fc; recombinant BCMA
Nature of the experiment: ELISA, neutralisation of ligand binding to plate-coated BCMA Fc 4-53; competitor APRIL; competitor APRIL. As to the method:
(§2) 96 well flat bottomed plates were coated overnight with 1 μg/mL solution of recombinant human BCMA Fc 4-53 in PBS. Following a wash step using 0.05% TWEEN20, plates were blocked with 2% Bovine Serum Albumin solution in PBS for 1 hour at room temperature. […] 40 μL of 2% BSA was added to the relevant control wells. […] Equivalent volume of 2% BSA was added to the relevant control wells. Plates were allowed to incubate for 2 hours at room temperature, after which they were washed as before. […] Following a wash step, 50 µL of a 1:4000 dilution of Streptavidin-HRP (Amersham RPN4401) was added to each well and incubated for 30 minutes at room temperature. The wash process was repeated again followed by the addition of […] of Tetramethylbenzidine substrate solution (T8665, Sigma) into each well. Plates were incubated for 20-25 minutes at room temperature, wrapped in foil. The reaction was stopped with the addition of […] of 1M H₂SO₄. Optical density was determined at 450 nm using Spectromax reader.
(In general: In an ELISA, binding on a coated surface is turned into a signal by an enzyme label.)

Experiment [12] concerns the target T1, human BCMA expressed on cells. Nature of the experiment: FMAT cell binding on HEK293 cells transfected with human BCMA, anti-human IgG FMAT Blue detection. As to the method:
Cryopreserved transfected human, cyno BCMA and mock transfected HEK293 cells were recovered from LN2 storage. […] The assay plates were left for a minimum of 90 minutes before the result was read on the ABI8200 (FMAT) plate reader.

Experiment [13] has as its target T5, recombinant human BCMA Fc 4-53. The experiment in a line: competition ELISA: binding of recombinant human APRIL to coated recombinant human BCMA Fc 4-53, biotinylated anti-APRIL and streptavidin-HRP, % of control. As to the method:
as §2

B1: CA8 chimera antibody (human chimeric CA8) (antibody, V domains shown)
VH: EVQLQQSGAVLARPGASVKMSCKGSGYTFTNYWMHWVKQRPGQGLEWIGATYRGHSDTYYNQKFKGKAKLTAVTSTSTAYMELSSLTNEDSAVYYCTRGAIYNGYDVLDNWGQGTLVTVSS
VL: DIQLTQTTSSLSASLGDRVTISCSASQDISNYLNWYQQKPDGTVELVIYYTSNLHSGVPSRFSGSGSGTDYSLTIGYLEPEDVATYYCQQYRKLPWTFGGGSKLEIKR
notes: also called Chimera CA8; CA8 chimeric antibody
One may read the Kd as the constant that tells how readily two partners part at equilibrium. In general, EC50 (read off the curve) refers to the midpoint of the concentration-response curve. Lower therefore signals greater potency. The term EC50 denotes the concentration needed to bring the measured effect to its halfway point. On to B1, for which, in [1], the “APRIL induced IC50 (phosphorylated NFkappaB in H-929 cells, MSD assay)” value was 38.5 ug/ml and 257 nM. Further, the “BAFF induced IC50 (phosphorylated NFkappaB in H-929 cells, MSD assay)” value in [1] was 1.5 ug/ml and 10 nM. Moreover, the Kd in experiment [2] came to 0.036 nM; in experiment [3] it was 0.305 nM; in experiment [5], 0.457 nM; in [6], 0.139 nM; in [7], 2.06 nM; in experiment [8], 0.14 nM. The figures for the Kd in experiment [9] and in [10] were 0.055 nM and 0.519 nM, respectively. Further, the “EC50 (read off the curve)” value is about 0.2 µg/mL in experiment [4] and about 0.4 µg/mL in experiment [12]. Besides, the half-maximal effective concentration (EC50) in experiment [11] is 0.773 µg/mL. In addition, the “IC50 (read off the curve)” value in [13] was about 800 ng/mL.
